What all share (experiment): inhibition of PE/PC monolayer binding (surface pressure, Wilhelmy technique); spectrin polypeptides preincubated 30 min at room temperature with ankSBD, then injected under a PE/PC 3:2 monolayer; 5 mM Tris/HCl pH 7.5, 0.5 mM EDTA, 150 mM NaCl, 0.5 mM dithiothreitol, 1 mM NaN3; 21°C
The target of assay [1] is ankBDn triple mutant SSSW (W1771S, L1775S, M1778S) (UniProt P11277).
For assay [2], the target named is recombinant ankyrin-binding domain of erythroid β-spectrin (ankBDn), wild type (UniProt P11277).
In assay [3] the target is ankBDn triple mutant CLSC (W1771C, M1778S, W1779C) (UniProt P11277).

Usually Ki stands for the dissociation constant of the complex between target and ligand, obtained from inhibition or displacement. Consider “recombinant spectrin-binding domain of erythrocyte ankyrin (ankSBD) (from UniProt P16157 1-1881) (domain or fragment)”, for which the results for the Ki in assay [1], in assay [2] and in assay [3] were 0.2 nM, 0.15 nM and 0.17 nM, respectively.

The values above are taken from article PMC3125217.
